The record followed here is patent publication US20230312724A1 (KADMON, published 2023).

The target of assay [1] is T1, human B7-H4-Fc (human).
T1 construct: also called hB7-H4-Fc; hB7-H4 Fc
Put plainly: ELISA, coated hB7-H4-Fc.

The target in assay [2] is T2, IgV domain of mouse B7-H4-Fc (mouse; human).
T2 construct: also called mB7-H4 IgV domain
Put plainly: ELISA on coated IgV domain of mB7-H4. The procedure:
About 1-2 μg/ml of human or mouse B7-H4-Fc (or his-tagged) was immobilized on ELISA plates (Immuno 2HB, Thermo scientific, cat #3455) at 4° C. overnight. After blocking the plates with 3% PBS+milk, serial diluted antibodies were added to the blocked plates and incubated at RT for 1-1.5 h. After washing the plates with PBS-T (0.05%), horse radish peroxidase (HRP)-conjugated antibody targeting the hFab was added to the plate. Signals were developed by adding 3,3′,5,5′-Tetramethylbenzidine (TMB (followed 1N of H₂SO₄ to stop the reaction. The OD at 450 nm was read by ELISA plate reader (Infinite M1000 from TECAN). GraphPad from Prism was used to plot OD450 vs. antibody concentration curve and to calculate the EC50 values.

Assay [3] concerns the target T3, human B7-H4 expressed on cells (human, UniProt Q7Z7D3 25-282).
T3 construct: Transfected CHO cells or tumor cell lines that carry hB7-H4; also called cellular hB7-H4
T3 sequence: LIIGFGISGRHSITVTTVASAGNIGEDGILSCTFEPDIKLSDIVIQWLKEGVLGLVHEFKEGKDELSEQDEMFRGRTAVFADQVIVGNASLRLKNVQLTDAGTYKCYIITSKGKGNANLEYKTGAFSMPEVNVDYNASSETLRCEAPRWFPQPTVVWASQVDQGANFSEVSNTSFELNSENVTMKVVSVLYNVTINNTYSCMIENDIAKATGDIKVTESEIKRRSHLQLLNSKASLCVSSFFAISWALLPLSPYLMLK
Nature of the assay: flow cytometry, MDA-MB-468 cells. The protocol:
Cells were harvested, washed once, and then re-suspended to the concentration of 1×10⁶ cells/ml in ice cold FACS Buffer. 25 μl of cell suspension was added to each well of a 96-well round-bottom microliter plate. Serially diluted antibodies or fusion proteins were added to each well and incubated for 1 hour at 4° C. Cells were washed three times by centrifugation at 1500 rpm for 5 minutes, and then stained with secondary antibody (1:200 dilution) for 30 min at 4° C. in the dark. Cells were washed once, re-suspended in 100 μl PBS buffer and then analyzed using Guava Flow Cytometry EasyCyte system.
For orientation: A flow cytometer gives signals particle by particle.

T1 sequence (chain, as listed by the source): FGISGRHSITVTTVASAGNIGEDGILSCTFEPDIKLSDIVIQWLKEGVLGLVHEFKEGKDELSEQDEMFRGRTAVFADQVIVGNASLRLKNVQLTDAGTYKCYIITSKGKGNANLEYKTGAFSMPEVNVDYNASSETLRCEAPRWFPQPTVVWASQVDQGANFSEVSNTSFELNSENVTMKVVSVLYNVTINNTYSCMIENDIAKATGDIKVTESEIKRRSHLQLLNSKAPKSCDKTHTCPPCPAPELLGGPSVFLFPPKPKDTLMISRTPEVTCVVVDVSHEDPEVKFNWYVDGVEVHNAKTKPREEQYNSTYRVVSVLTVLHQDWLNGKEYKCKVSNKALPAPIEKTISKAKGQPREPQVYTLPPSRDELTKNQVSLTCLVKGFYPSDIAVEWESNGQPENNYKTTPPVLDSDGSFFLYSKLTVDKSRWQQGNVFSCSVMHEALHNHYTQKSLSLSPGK
T2 sequence (chain, as listed by the source): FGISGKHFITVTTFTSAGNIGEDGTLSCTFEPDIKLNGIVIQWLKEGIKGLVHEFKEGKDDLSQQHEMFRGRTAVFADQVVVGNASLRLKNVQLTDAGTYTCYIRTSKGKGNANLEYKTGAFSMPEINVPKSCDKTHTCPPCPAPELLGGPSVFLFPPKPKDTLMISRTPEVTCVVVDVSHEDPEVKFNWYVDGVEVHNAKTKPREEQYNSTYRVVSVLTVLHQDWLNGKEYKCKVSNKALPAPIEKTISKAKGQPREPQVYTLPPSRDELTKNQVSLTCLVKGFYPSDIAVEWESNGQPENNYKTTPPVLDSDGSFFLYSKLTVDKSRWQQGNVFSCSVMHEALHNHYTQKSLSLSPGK

B1: Control antibody 1 (antibody 20502 described in US20190085080A1) (antibody, V domains shown)
VH: QLQLQESGPGLVKPSETLSLTCTVSGGSIKSGSYYWGWIRQPPGKGLEWIGNIYYSGSTYYNPSLRSRVTISVDTSKNQFSLKLSSVTAADTAVYYCAREGSYPNQFDPWGQGTLVTVSS
VL: EIVMTQSPATLSVSPGERATLSCRASQSVSSNLAWYQQKPGQAPRLLIYGASTRATGIPARFSGSGSGTEFTLTISSLQSEDFAVYYCQQYHSFPFTFGGGTKVEIK
notes: also called (+) control Ab1; (+) Ab1
As usually defined, the EC50 (read off the curve) is the midpoint of the concentration-response curve. A high value points to lower potency in that assay. For B1, the “EC50 (read off the curve)” value was around 0.02 µg/mL in assay [1] and around 0.2 nM in assay [2].

B2: 39A11/57G8 (antibody, human IgG1, V domains shown)
VH: EVQLLESGGGLVQPGGSLRLSCAASGFTFSSYGMHWVRQAPGKGLEWVASISSSSGYIYYADSVKGRFTISRDNSKNTLYLQMNSLRAEDTAVYYCARASSGMDVWGQGTTVTVSS
VL: DIQMTQSPSSLSASVGDRVTITCRASQSIRSYLNWYQQKPGKAPKLLIYYASSLQSGVPSRFSGSGSGTDFTLTISSLQPEDFATYYCQQYYSTPLTFGQGTKVEIK
notes: 39A11 VH with 57G8 VL
By EC50 is commonly meant the concentration at which the effect is half-maximal. Lower therefore signals higher potency in that assay. Molecule B2 came in with an EC50 in assay [3] of 13.1 nM.
